Test results published in the supplement of paper PMC7877785.
± gives the uncertainty stated by the source.

Test: self-splicing fitness, log relative to wild type (ln ratio); higher = more splicing; Tetrahymena group I intron in knt gene, E. coli kanamycin selection, DiMSum; sequences stand for … in CUCUCU…GGAGGGAAAAGUUAUCAGGCAUGCACCUGGUAGCUAGUCUUUAAACCAAUAGAUUGCAUCGGUUUAAAAGGCAAGACCGUCAAAUUGCGGGAAAGGGGUCAACAGCCGUUCAGUACCAAGUCUCAGGGGAAACUUUGAGAUGGCCUUGCAAAGGGUAUGGUAAUAAGCUGACGGACAUGGUCCUAACCACGCAGCCAAGUCCUAAGUCAACAGAUCUUCUGUUGAUAUGGAUGCAGUUCACAGACUAAAUGUCGGUCGGGGAAGAUGUAUUCUUCUCAUAAGAUAUAGUCGGACCUCUCCUUAAUGGGAGCUAGCGGAUGAAGUGAUGCAACACUGGAGCCGCUGGGAACUAAUUUGUAUGCGAAAGUAUAUUGAUUAGUUUUGGAGUACUCGUGGUCG
Method in brief: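 Fitness was computed with DiMSum as the error-weighted combination of replicate fold changes, kanamycin versus none, each normalised to wild type. The library randomised all eight intron nucleotides of the P1ex region, with the intron placed in the knt kanamycin-resistance gene on pET-22b(+) in E. coli BL21(DE3). Six replicate transformations were grown overnight at 37°C or 30°C on LB agar with or without 25 μg/mL kanamycin, plus 100 μg/mL carbenicillin, 50 μM IPTG and 0.2% rhamnose. Pooled colonies were amplicon-sequenced on an Illumina HiSeq 2500.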

Sequence	self-splicing fitness (ln) (30 °C)	self-splicing fitness (ln) (37 °C)
CCAUAGCAAUAUUACGCGCU	-3.87 ± 0.27	-3.05 ± 0.4
CCAUAGCAAUAUUACGCUGC	-3.84 ± 0.3	-2.25 ± 0.27
CCAUAGCAAUAUUACGGAGC	–	-2.74 ± 0.31
CCAUAGCAAUAUUACGGCGC	-1.25 ± 0.19	-2.07 ± 0.3
CCAUAGCAAUAUUACGGCGU	-3.98 ± 0.3	-1.97 ± 0.23
CCAUAGCAAUAUUACGGGAA	-3.49 ± 0.19	-2.84 ± 0.18
CCAUAGCAAUAUUACGGGCU	-3.65 ± 0.27	-2.19 ± 0.19
CCAUAGCAAUAUUACGGUAA	-3.53 ± 0.33	-3.26 ± 0.35
CCAUAGCAAUAUUACGGUGG	-3.66 ± 0.13	-3.4 ± 0.18
CCAUAGCAAUAUUACGGUUC	-4.2 ± 0.46	-2.03 ± 0.35
CCAUAGCAAUAUUACGUACG	-0.658 ± 0.07	0.351 ± 0.086
CCAUAGCAAUAUUACGUAGU	-3.93 ± 0.24	-2.14 ± 0.23
CCAUAGCAAUAUUACGUAUC	-2.32 ± 0.15	-2.01 ± 0.31
CCAUAGCAAUAUUACGUCAG	-1.74 ± 0.13	-1.61 ± 0.15
CCAUAGCAAUAUUACGUCGG	-3.15 ± 0.19	-2.02 ± 0.29
CCAUAGCAAUAUUACGUGGG	-4.18 ± 0.16	-2.96 ± 0.15
CCAUAGCAAUAUUACGUUCC	-3.61 ± 0.39	-2.52 ± 0.44
CCCAAGCAAUAUUACGAAGU	-2.98 ± 0.15	-2.19 ± 0.18
CCCAAGCAAUAUUACGACAC	-2.66 ± 0.2	-3.25 ± 0.43
CCCAAGCAAUAUUACGACGA	-2.93 ± 0.17	-1.49 ± 0.14
CCCAAGCAAUAUUACGACGC	-2.8 ± 0.22	-0.545 ± 0.23
CCCAAGCAAUAUUACGACGG	-3.7 ± 0.21	-1.61 ± 0.16
CCCAAGCAAUAUUACGAGAC	-3.64 ± 0.21	-1.4 ± 0.17
CCCAAGCAAUAUUACGAUGA	-1.7 ± 0.19	-2.69 ± 0.24
CCCAAGCAAUAUUACGCAAA	-3.35 ± 0.13	-2.71 ± 0.14

Sequence	self-splicing fitness (ln) (30 °C)	self-splicing fitness (ln) (37 °C)
CCCAAGCAAUAUUACGCCCC	–	-2.52 ± 0.48
CCCAAGCAAUAUUACGCUCA	-3.73 ± 0.27	-3.23 ± 0.25
CCCAAGCAAUAUUACGCUUU	-3.91 ± 0.2	-1.85 ± 0.17
CCCAAGCAAUAUUACGGAAG	-2.89 ± 0.16	-1.48 ± 0.15
CCCAAGCAAUAUUACGGACU	-3.92 ± 0.26	-2.6 ± 0.18
CCCAAGCAAUAUUACGGCCU	-3.6 ± 0.35	-3.09 ± 0.37
CCCAAGCAAUAUUACGGCGC	–	-2.73 ± 0.25
CCCAAGCAAUAUUACGGCGU	-3.85 ± 0.19	-2.4 ± 0.13
CCCAAGCAAUAUUACGGCUA	-4.01 ± 0.42	-3.19 ± 0.32
CCCAAGCAAUAUUACGGCUU	-4.22 ± 0.22	-3.15 ± 0.17
CCCAAGCAAUAUUACGGGCC	-3.98 ± 0.22	-2.08 ± 0.19
CCCAAGCAAUAUUACGGGUC	-3.19 ± 0.13	-3.14 ± 0.19
CCCAAGCAAUAUUACGGUAG	-2.45 ± 0.086	-1.77 ± 0.087
CCCAAGCAAUAUUACGGUCC	-2.66 ± 0.15	-2.65 ± 0.21
CCCAAGCAAUAUUACGUAUC	-4.03 ± 0.14	-2.52 ± 0.14
CCCAAGCAAUAUUACGUUCG	-2.11 ± 0.14	-2.49 ± 0.2
CCCCAGCAAUAUUACGAACU	-5.09 ± 0.45	-2.29 ± 0.2
CCCCAGCAAUAUUACGAAGC	-4.34 ± 0.31	-3.28 ± 0.3
CCCCAGCAAUAUUACGAAUA	–	-1.41 ± 0.21
CCCCAGCAAUAUUACGACAC	-3.97 ± 0.43	-2.41 ± 0.36
CCCCAGCAAUAUUACGAGGA	-2.66 ± 0.13	-1.53 ± 0.11
CCCCAGCAAUAUUACGAUCC	-3.27 ± 0.27	-0.776 ± 0.32
CCCCAGCAAUAUUACGAUGA	-3.16 ± 0.16	-3.01 ± 0.19
CCCCAGCAAUAUUACGAUGC	-3.46 ± 0.16	-3.15 ± 0.29
CCCCAGCAAUAUUACGCAAA	-3.28 ± 0.14	-2.44 ± 0.18

Sequence	self-splicing fitness (ln) (30 °C)	self-splicing fitness (ln) (37 °C)
CCCCAGCAAUAUUACGCAAC	-3.54 ± 0.14	-2.48 ± 0.15
CCCCAGCAAUAUUACGCACU	-4.21 ± 0.33	-2.68 ± 0.22
CCCCAGCAAUAUUACGCGUU	-4.16 ± 0.17	-2.57 ± 0.19
CCCCAGCAAUAUUACGCUCU	-3.81 ± 0.22	-2.47 ± 0.26
CCCCAGCAAUAUUACGCUUA	-3.59 ± 0.17	-2.66 ± 0.17
CCCCAGCAAUAUUACGGACG	-1.67 ± 0.096	-0.944 ± 0.13
CCCCAGCAAUAUUACGGAGG	-4.83 ± 0.26	-2.63 ± 0.16
CCCCAGCAAUAUUACGGCAA	-3.17 ± 0.15	-3.06 ± 0.2
CCCCAGCAAUAUUACGGUGC	-3.88 ± 0.19	-2.73 ± 0.18
CCCCAGCAAUAUUACGGUUC	-4.25 ± 0.25	-2.97 ± 0.28
CCCCAGCAAUAUUACGUACG	-3.95 ± 0.26	-1.89 ± 0.17
CCCCAGCAAUAUUACGUAGU	-3.09 ± 0.078	-3.07 ± 0.16
CCCCAGCAAUAUUACGUCCC	-2.21 ± 0.36	–
CCCCAGCAAUAUUACGUUCU	-4.2 ± 0.27	-3.05 ± 0.17
CCCCAGCAAUAUUACGUUUA	-3.99 ± 0.16	-2.35 ± 0.15
CCCGAGCAAUAUUACGCAAA	-4.05 ± 0.35	-0.386 ± 0.21
CCCGAGCAAUAUUACGCAGG	-1.97 ± 0.2	-1.36 ± 0.22
CCCGAGCAAUAUUACGCAUU	-3.69 ± 0.33	-2.22 ± 0.3
CCCGAGCAAUAUUACGCCGC	-3.53 ± 0.43	-1.59 ± 0.47
CCCGAGCAAUAUUACGCGCU	-3.45 ± 0.25	-2.91 ± 0.29
CCCGAGCAAUAUUACGCGGC	-3.67 ± 0.4	-1.88 ± 0.29
CCCGAGCAAUAUUACGCGUG	-3.9 ± 0.2	-3.2 ± 0.29
CCCGAGCAAUAUUACGGCUA	-3.46 ± 0.29	-3.2 ± 0.32
CCCGAGCAAUAUUACGGCUC	-4.18 ± 0.34	-2.21 ± 0.23
CCCGAGCAAUAUUACGGGCA	-3.2 ± 0.23	-2.66 ± 0.23

Sequence	self-splicing fitness (ln) (30 °C)	self-splicing fitness (ln) (37 °C)
CCCGAGCAAUAUUACGGGGG	-3.59 ± 0.16	-2.89 ± 0.27
CCCGAGCAAUAUUACGGGUC	-4.34 ± 0.28	-2.12 ± 0.23
CCCGAGCAAUAUUACGGGUU	-3.82 ± 0.16	-2.89 ± 0.18
CCCGAGCAAUAUUACGUACG	-3.24 ± 0.18	-2.83 ± 0.24
CCCGAGCAAUAUUACGUAGC	-3.06 ± 0.24	-2.49 ± 0.33
CCCGAGCAAUAUUACGUAUG	-4.9 ± 0.45	-2 ± 0.19
CCCGAGCAAUAUUACGUCAA	-3.36 ± 0.2	-3.09 ± 0.2
CCCGAGCAAUAUUACGUCUU	-3.38 ± 0.18	-2.16 ± 0.19
CCCGAGCAAUAUUACGUGAA	-3.43 ± 0.37	-1.87 ± 0.34
CCCGAGCAAUAUUACGUGAU	-4.13 ± 0.28	-2.22 ± 0.19
CCCGAGCAAUAUUACGUUGA	-4.57 ± 0.32	-2.78 ± 0.2
CCCGAGCAAUAUUACGUUUU	-4.01 ± 0.33	-2.01 ± 0.23
CCCUAGCAAUAUUACGAAAG	-3.5 ± 0.26	–
CCCUAGCAAUAUUACGAAUC	-3.92 ± 0.22	-2.61 ± 0.18
CCCUAGCAAUAUUACGACAC	–	-2.32 ± 0.28
CCCUAGCAAUAUUACGAGCC	-3.5 ± 0.29	–
CCCUAGCAAUAUUACGAGGU	-3.87 ± 0.16	-0.753 ± 0.1
CCCUAGCAAUAUUACGAUUA	-1.88 ± 0.44	-1.33 ± 0.34
CCCUAGCAAUAUUACGCAGG	-3.06 ± 0.22	-3.3 ± 0.3
CCCUAGCAAUAUUACGCAGU	-4.87 ± 0.36	-2.2 ± 0.22
CCCUAGCAAUAUUACGCAUU	-3.74 ± 0.28	-2.82 ± 0.43
CCCUAGCAAUAUUACGCGAA	-1.83 ± 0.2	-2.2 ± 0.23
